Experimental data taken from patent US20220411483A1 (Chugai, published 2022).
Changes are numbered by the printed parent chain.

T1: FcgRIIaR (human, UniProt P12318 34-217)
T1 construct: extracellular domain; also called FcγRIIa R type; FcγRIIa (R type)
T1 sequence (looked up): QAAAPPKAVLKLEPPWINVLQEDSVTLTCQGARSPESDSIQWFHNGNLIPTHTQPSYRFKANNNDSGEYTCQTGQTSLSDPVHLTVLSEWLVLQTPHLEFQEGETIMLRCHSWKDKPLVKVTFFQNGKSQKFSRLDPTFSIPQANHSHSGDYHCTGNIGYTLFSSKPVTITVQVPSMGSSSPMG

T2: FcgRIIb (human, UniProt P31994 43-217)
T2 construct: extracellular domain; also called FcγRIIb
T2 sequence (looked up): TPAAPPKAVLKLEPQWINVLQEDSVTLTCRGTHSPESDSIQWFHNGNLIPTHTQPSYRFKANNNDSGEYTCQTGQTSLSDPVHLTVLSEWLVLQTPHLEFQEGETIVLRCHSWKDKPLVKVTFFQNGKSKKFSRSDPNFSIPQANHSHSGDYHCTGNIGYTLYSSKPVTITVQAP

B1: IL6R-P745/IL6R-L (antibody, human IgG1, kappa)
heavy: QVQLQESGPGLVKPSETLSLTCAVSGHSISHDHAWSWVRQPPGEGLEWIGFISYSGITNYNPSLQGRVTISRDNSKNTLYLQMNSLRAEDTAVYYCARSLARTTAMDYWGEGTLVTVSSASTKGPSVFPLAPSSKSTSGGTAALGCLVKDYFPEPVTVSWNSGALTSGVHTFPAVLQSSGLYSLSSVVTVPSSSLGTQTYICNVNHKPSNTKVDKKVEPKSCDKTHTCPPCPAPELLGGDSVFLFPPKPKDTLMISRTPEVTCVVVDVSHEDPEVKFNWYVDGVEVHNAKTKPREEQYNATYRVVSVLTVLHQDWLNGKEYKCEVSNKALPAPIEKTISKAKGQPREPQVYTLPPSRDELTKNQVSLTCLVKGFYPSDIAVEWESNGQPENNYKTTPPVLDSDGSFFLYSKLTVDKSRWQQGNVFSCSVMHEALHNHYTQKSLSLSP
light: not shown
B2: IL6R-P746/IL6R-L (antibody, human IgG1, kappa)
heavy: B1 heavy with L237F, G239Q, F243M, Y298E, A300S, E324A
light: not shown
B3: IL6R-P747/IL6R-L (antibody, human IgG1, kappa)
heavy: B1 heavy with L237F, G239Q, F243M, Y298E, A300S
light: not shown
B4: IL6R-P748/IL6R-L (antibody, human IgG1, kappa)
heavy: B1 heavy with G239Q, F243M, H270P, Y298E, A300S, E324A, A332H
light: not shown
B5: IL6R-P749/IL6R-L (antibody, human IgG1, kappa)
heavy: B1 heavy with G239Q, F243M, H270P, Y298E, A300S, A332H
light: not shown
B6: IL6R-P750/IL6R-L (antibody, human IgG1, kappa)
heavy: B1 heavy with L237F, G239Q, F243M, H270P, Y298E, A300S, E324A
light: not shown
B7: IL6R-P751/IL6R-L (antibody, human IgG1, kappa)
heavy: B1 heavy with L237F, G239Q, F243M, H270P, Y298E, A300S
light: not shown
B8: IL6R-P752/IL6R-L (antibody, human IgG1, kappa)
heavy: B1 heavy with L237F, G239Q, F243M, H270P, Y298E, A300S, E324A, S326H
light: not shown
B9: IL6R-P753/IL6R-L (antibody, human IgG1, kappa)
heavy: B1 heavy with L237F, G239Q, F243M, H270P, Y298E, A300S, S326H
light: not shown
B10: IL6R-P754/IL6R-L (antibody, human IgG1, kappa)
heavy: B1 heavy with G239Q, F243M, H270P, Y298E, A300S, E324A, S326H, A332H
light: not shown
B11: IL6R-P755/IL6R-L (antibody, human IgG1, kappa)
heavy: B1 heavy with G239Q, F243M, H270P, Y298E, A300S, S326H, A332H
light: not shown
B12: IL6R-P756/IL6R-L (antibody, human IgG1, kappa)
heavy: B1 heavy with E235D, V266I, S269A, H270E, P273G, A300S, E324K, A329G, A332S, P333S
light: not shown
B13: IL6R-P757/IL6R-L (antibody, human IgG1, kappa)
heavy: B1 heavy with V266I, S269A, H270E, P273G, A300S, E324K, A329G, A332S, P333S
light: not shown
B14: IL6R-P758/IL6R-L (antibody, human IgG1, kappa)
heavy: B1 heavy with G239D, H270D, P273G, A300S, E324K, A329G, A332S, P333S
light: not shown
B15: IL6R-P759/IL6R-L (antibody, human IgG1, kappa)
heavy: B1 heavy with E235D, G239D, H270D, P273G, A300S, E324K, A329G, A332S, P333S
light: not shown
B16: IL6R-P760/IL6R-L (antibody, human IgG1, kappa)
heavy: B1 heavy with G239D, H270E, P273G, A300S, E324K, A329G, A332S, P333S
light: not shown
B17: IL6R-P761/IL6R-L (antibody, human IgG1, kappa)
heavy: B1 heavy with E235D, G239D, H270E, P273G, A300S, E324K, A329G, A332S, P333S
light: not shown
B18: IL6R-P762/IL6R-L (antibody, human IgG1, kappa)
heavy: B1 heavy with P273G, A300S, E324K, A329G, A332S, P333S
light: not shown
B19: IL6R-P763/IL6R-L (antibody, human IgG1, kappa)
heavy: B1 heavy with S269A, H270E, P273G, A300S, E324K
light: not shown
B20: IL6R-P764/IL6R-L (antibody, human IgG1, kappa)
heavy: B1 heavy with V266I, H270E, P273G, A300S, E324K
light: not shown
B21: IL6R-P765/IL6R-L (antibody, human IgG1, kappa)
heavy: B1 heavy with V266I, S269A, P273G, A300S, E324K
light: not shown
B22: IL6R-P766/IL6R-L (antibody, human IgG1, kappa)
heavy: B1 heavy with S269A, H270E, P273G, A300S, E324K, A329G, A332S, P333S
light: not shown
B23: IL6R-P767/IL6R-L (antibody, human IgG1, kappa)
heavy: B1 heavy with V266I, H270E, P273G, A300S, E324K, A329G, A332S, P333S
light: not shown
B24: IL6R-P768/IL6R-L (antibody, human IgG1, kappa)
heavy: B1 heavy with V266I, S269A, P273G, A300S, E324K, A329G, A332S, P333S
light: not shown
B25: IL6R-P769/IL6R-L (antibody, human IgG1, kappa)
heavy: B1 heavy with V266I, P273G, A300S, E324K
light: not shown
B26: IL6R-P770/IL6R-L (antibody, human IgG1, kappa)
heavy: B1 heavy with V266I, P273G, A300S, E324K, A329G, A332S, P333S
light: not shown
B27: IL6R-P771/IL6R-L (antibody, human IgG1, kappa)
heavy: B1 heavy with V266I, P273G, A300S, E324A
light: not shown
B28: IL6R-P772/IL6R-L (antibody, human IgG1, kappa)
heavy: B1 heavy with V266I, P273G, A300S
light: not shown
B29: IL6R-P773/IL6R-L (antibody, human IgG1, kappa)
heavy: B1 heavy with S269A, H270E, P273G, A300S, E324A
light: not shown

The binders below were run against T1, FcgRIIaR (assay: SPR, amount bound per captured antibody).

Relative FcgRIIaR-binding Activity [IL6R-G1d/IL6R-L=100]	Binder
13.7	B1
7	B2
10	B3
5.1	B4
6.8	B5
6.1	B6
7.4	B7
7.2	B8
10.4	B9
5.6	B10
9.8	B11
92.4	B12
89.2	B13
90.6	B14
96.5	B15
97.1	B16
103	B17
75.8	B18
101	B19
89.5	B20
93.2	B21
88.1	B22
84.2	B23
80.9	B24
86.7	B25
78.2	B26
75.8	B27
84.3	B28
87.3	B29

These binders were tested against T2, FcgRIIb (assay: SPR, amount bound per captured antibody).

Relative FcgRIIb-binding Activity [IL6R-G1d/IL6R-L=100]	Binder
95.4	B1
57.5	B2
98.1	B3
42.7	B4
73.9	B5
48.1	B6
72.5	B7
62.9	B8
103	B9
85.8	B10
130	B11
323	B12
327	B13
285	B14
305	B15
304	B16
320	B17
252	B18
332	B19
329	B20
340	B21
286	B22
318	B23
305	B24
196	B25
188	B26
195	B27
196	B28
192	B29

These binders were tested against T3, human complement C1q (human, UniProt P02745 23-245; P02746 28-253; P02747 29-245) (assay: SPR, C1q bound per antibody captured on Protein L).
T3 construct: Bought (PROSPEC or Calbiochem); also called human C1q
Procedure: The interaction between an antibody and human C1q was analyzed using Biacore T200 (GE Healthcare). HBS-EP+ (GE Healthcare) was used as the running buffer, and the measurement temperature was set at 25° C. Chips produced by immobilizing Protein L (ACTIGEN or BioVision) onto Series S sensor Chip CM4 (GE Healthcare) by amine coupling were used.
The antibodies of interest were captured onto these sensor chips, and allowed to interact with human complement C1q (PROSPEC or Calbiochem) diluted in the running buffer. The amount of antibody binding was determined, and comparisons were made among the antibodies. However, since the amount of C1q bound depends on the amount of captured antibodies, corrected values obtained by dividing the amount of C1q bound by the amount of each antibody captured were compared. Furthermore, by reaction with 10 mM glycine-HCl, pH 1.5, the antibodies captured onto the sensor chips were washed, and the sensor chips were recycled and reused.

T3 sequence (P02745 23-245 limits assumed, chain 1 of 3): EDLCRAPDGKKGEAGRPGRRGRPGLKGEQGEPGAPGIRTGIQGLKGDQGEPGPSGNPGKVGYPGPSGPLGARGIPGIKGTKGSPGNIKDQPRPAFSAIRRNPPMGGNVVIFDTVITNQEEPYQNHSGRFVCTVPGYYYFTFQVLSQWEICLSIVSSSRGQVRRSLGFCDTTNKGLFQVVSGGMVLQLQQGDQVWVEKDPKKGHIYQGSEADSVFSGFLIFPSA
T3 sequence (P02746 28-253 limits assumed, chain 2 of 3): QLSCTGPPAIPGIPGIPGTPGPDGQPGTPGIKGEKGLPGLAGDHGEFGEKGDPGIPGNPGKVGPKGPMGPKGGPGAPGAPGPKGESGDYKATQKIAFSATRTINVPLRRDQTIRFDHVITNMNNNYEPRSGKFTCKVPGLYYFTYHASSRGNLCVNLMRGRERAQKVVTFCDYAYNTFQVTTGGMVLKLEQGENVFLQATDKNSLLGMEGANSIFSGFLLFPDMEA
T3 sequence (P02747 29-245 limits assumed, chain 3 of 3): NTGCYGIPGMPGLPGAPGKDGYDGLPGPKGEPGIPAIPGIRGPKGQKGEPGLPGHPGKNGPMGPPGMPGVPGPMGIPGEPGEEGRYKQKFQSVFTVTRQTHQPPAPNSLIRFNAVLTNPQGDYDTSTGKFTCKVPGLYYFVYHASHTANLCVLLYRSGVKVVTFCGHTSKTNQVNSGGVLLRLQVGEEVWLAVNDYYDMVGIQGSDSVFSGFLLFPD

Amount of C1q-binding when that for G1d is Defined as 100 [G1d=100]	Binder
20.9	B1
1.4	B2
13.7	B3
1.4	B4
13.8	B5
1.2	B6
13.9	B7
1.1	B8
14	B9
1.8	B10
14.4	B11
15	B12
22.6	B13
2	B14
14.5	B15
21.7	B16
2.1	B17
14.6	B18
41.7	B19
23.1	B20
46.6	B21
21.8	B22
1.7	B23
14	B24
31.3	B25
1.5	B26
14.3	B27
21.6	B28
1.7	B29
